The values that follow come from PMC10950897 (Nature Communications, 2024).

Assay [1] has as its target T1, His6-p97 WT (human, UniProt P55072 1-806).
T1 construct: p97/VCP, human; from plasmid pET15b-His6-p97; hexamer by mass photometry (535 kDa); also called recombinant p97; purified p97; source: E. coli BL21(DE3), purified (Ni-NTA, Superose 6)
The assay can be described thus: SPR; Biacore T200, 25 C, His6-p97 amine-coupled to CM5 chip (~400 RU), Strep-HA-VCF1 full-length as analyte up to 100 nM, PBS-P with 0.5 mM TCEP, 1:1 model. To be noted: both partners purified.

Assay [2] deals with T1, His6-p97 WT. The assay can be described thus: pull-down; biotinylated VRM, VIM or VBM peptides immobilized on StrepTactin agarose, incubated with purified WT or mutant His6-p97, washed extensively in RIPA buffer, immunoblot. To be noted: both partners purified. For orientation: A western blot detects proteins with antibodies after separation by electrophoresis.

Where no end group is shown, it is not given here. The star is where a group is joined. Biotin = O=C1N[C@H]2[C@H](CS[C@H]2CCCCC(=O)*)N1

T1 sequence (P55072 whole entry): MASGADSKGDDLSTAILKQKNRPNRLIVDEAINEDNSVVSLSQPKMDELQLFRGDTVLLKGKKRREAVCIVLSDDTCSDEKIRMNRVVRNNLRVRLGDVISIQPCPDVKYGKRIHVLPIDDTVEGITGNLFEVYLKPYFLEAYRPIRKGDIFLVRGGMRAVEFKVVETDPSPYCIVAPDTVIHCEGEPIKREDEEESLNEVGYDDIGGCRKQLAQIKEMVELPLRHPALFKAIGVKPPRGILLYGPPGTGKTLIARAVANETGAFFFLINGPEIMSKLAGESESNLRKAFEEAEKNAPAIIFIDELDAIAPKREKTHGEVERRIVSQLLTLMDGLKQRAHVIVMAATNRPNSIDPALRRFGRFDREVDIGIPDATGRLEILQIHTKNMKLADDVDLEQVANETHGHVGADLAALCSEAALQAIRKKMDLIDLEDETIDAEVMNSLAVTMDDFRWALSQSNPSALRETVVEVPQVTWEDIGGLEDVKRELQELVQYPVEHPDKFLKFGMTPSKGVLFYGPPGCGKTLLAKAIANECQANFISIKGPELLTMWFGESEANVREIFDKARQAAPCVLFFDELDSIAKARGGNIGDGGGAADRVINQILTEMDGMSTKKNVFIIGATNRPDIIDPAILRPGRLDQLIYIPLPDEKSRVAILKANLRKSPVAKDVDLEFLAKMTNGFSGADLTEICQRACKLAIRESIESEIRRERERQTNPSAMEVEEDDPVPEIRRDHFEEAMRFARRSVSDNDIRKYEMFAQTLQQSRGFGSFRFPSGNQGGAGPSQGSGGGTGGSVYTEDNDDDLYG

B1: Strep-HA-VCF1 WT (natural protein)
chain: not shown
notes: VCF1 (FAM104A), human, isoform 1, 186 amino acids; cDNA inserted into pcDNA5/FRT/TO/Strep-HA; also called recombinant VCF1; full-length VCF1; source: HEK293-EBNA1-6E, transfected, purified (Strep-Tactin, Superose 6)
The term Kd denotes the free concentration of one partner at which half of the binding sites on the other are occupied at equilibrium, for simple one-to-one binding. In the assay with His6-p97 WT [1], B1 displayed an equilibrium dissociation constant (Kd) of around 10 nM.

B2: VBM (ATXN3, aa275-295) peptide (peptide)
peptide: Biotin-NLTSEELRKRREAYFEKQQQK
notes: ATXN3 (ataxin-3), human, VBM motif, aa275-295; also called peptide spanning the VBM in ATXN3; source: synthetic peptide, bought: GenScript
Regarding B2, the binding result with His6-p97 WT [2] is listed as “binds”.

B3: VIM (SVIP, aa14-39) peptide (peptide)
peptide: Biotin-PTPDLEEKRAKLAEAAERRQKEAAS
notes: SVIP, human, VIM motif; also called peptide spanning the VIM in SVIP; source: synthetic peptide, bought: GenScript
Regarding B3, the binding result with His6-p97 WT [2] was “binds”.
